Measured values: publication PMC5399183

Target: Recombinant human integrin αvβ5 (human) (UniProt P06756)
Sequence of UniProt P06756 (P06756 31-1048, chain 1 of 2): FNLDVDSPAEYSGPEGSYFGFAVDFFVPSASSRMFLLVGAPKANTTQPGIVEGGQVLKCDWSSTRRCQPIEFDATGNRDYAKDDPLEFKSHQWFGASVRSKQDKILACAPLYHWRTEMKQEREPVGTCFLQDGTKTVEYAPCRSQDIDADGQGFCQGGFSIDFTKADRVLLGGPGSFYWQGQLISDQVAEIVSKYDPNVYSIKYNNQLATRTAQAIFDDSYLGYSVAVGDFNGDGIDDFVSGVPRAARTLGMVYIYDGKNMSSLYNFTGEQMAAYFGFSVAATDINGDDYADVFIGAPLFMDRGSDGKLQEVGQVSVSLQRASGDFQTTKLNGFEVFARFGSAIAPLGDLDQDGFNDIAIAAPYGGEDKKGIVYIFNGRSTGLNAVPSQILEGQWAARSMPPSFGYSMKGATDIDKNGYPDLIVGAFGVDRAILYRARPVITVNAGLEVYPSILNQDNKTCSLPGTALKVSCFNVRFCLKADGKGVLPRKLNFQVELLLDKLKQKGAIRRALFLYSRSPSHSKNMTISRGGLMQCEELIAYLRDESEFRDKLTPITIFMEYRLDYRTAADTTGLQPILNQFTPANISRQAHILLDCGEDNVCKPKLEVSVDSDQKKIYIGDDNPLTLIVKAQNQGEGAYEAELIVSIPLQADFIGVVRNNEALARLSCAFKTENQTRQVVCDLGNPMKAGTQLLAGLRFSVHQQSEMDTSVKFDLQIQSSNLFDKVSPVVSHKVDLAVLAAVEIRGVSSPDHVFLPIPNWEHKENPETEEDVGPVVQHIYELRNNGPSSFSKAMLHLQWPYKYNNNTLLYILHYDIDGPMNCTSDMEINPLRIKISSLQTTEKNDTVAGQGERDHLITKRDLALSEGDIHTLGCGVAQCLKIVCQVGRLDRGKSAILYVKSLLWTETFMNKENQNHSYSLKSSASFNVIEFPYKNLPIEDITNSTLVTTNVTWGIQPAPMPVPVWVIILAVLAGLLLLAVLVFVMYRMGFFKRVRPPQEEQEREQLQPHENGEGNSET
Sequence of UniProt P06756 (P18084 24-719, chain 2 of 2, further chain): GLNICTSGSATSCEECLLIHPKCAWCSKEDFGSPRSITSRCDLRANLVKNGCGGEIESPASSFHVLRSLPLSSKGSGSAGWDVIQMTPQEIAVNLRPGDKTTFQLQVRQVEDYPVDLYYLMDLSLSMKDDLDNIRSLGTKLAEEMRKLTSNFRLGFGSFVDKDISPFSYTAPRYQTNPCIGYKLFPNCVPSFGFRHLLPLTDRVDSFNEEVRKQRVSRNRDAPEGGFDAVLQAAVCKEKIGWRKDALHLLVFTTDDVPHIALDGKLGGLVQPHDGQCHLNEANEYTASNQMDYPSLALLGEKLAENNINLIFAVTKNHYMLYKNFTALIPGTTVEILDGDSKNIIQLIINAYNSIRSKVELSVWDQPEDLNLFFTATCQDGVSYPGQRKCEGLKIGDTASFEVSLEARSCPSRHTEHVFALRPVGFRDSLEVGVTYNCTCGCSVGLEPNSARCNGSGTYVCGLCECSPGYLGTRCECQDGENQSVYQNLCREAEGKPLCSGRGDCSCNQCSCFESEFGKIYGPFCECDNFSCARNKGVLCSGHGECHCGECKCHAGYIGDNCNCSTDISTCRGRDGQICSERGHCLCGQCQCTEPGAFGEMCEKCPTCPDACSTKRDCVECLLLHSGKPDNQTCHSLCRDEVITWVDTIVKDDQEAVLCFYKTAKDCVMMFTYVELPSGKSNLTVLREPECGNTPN

- Ang2-induced astrocyte apoptosis under high glucose (annexin-V/PI FACS, 48 h, percentage of apoptotic cells) with anti-integrin αvβ5 blocking antibody (10 μg/ml): 19.3%
Substance: Recombinant human angiopoietin 2 (from UniProt O15123 19-496) (ligand)
